We go through 1 molecule from patent US20040157314A1, “Inhibitors of Staphylococcus aureus primary sigma factor and uses thereof” (priority 2003, published 2004).

Test [1] concerns the target STAAU_R12 with E. coli core and biotinylated λPR oligonucleotide (Staphylococcus aureus, UniProt P0A0J0). It is filed as biochemical. Conditions: 0 to 4 μM; 32 nM HK-STAAU_R12, 45 nM biotinylated DNA.
Description: We developed a fluorescence-based high throughput assay to monitor the interaction of STAAU_R12 with its cognate DNA. […] Europium cryptate (Eu) labeled anti-Histidine was used as an energy donor and Allophycocyanin (APC) labeled streptavidin was used as an energy acceptor.
The reaction was incubated for 15 min at room temperature and then, 6 μl of a mixture of Eu-conjugated anti-Histidine (CIS International) and APC-conjugated streptavidin (Prozyme) were added to final concentrations of 3 and 15 nM, respectively. Samples were mixed and 25 μl of the mixture was transferred to a 96-well opaque plate (Molecular Devices). After 45 min incubation at room temperature, the emission at 665 nm (APC) and at 612 nm (Eu) arising from excitation as 340 nm was measured using a Tecan Ultra™ plate reader. […] A mutated version of untagged λPR oligonucleotide consisting of a substitution of the −35 region (from TTGACT in the wild type PR oligonucleotide to ACTTTG in the mutated oligonucleotide) was used as a non specific competitor. Competitors were added to the reaction mixture prior to addition of Eu and APC conjugates.
Test [2] addresses T1, reconstituted holoenzyme from HK-STAAU_R12 and S. aureus core enzyme (Staphylococcus aureus, UniProt P0A0J0).
T1 construct: made in house; S. aureus RN4220 transformed with pTMHB rpoA (core enzyme)
Description: In vitro transcription and TCA precipitation assay, 96-well. It is filed as biochemical. The following applies: 10 μM, FIG. 8. From the text:
In order to convert this gel-based transcription assay to a 96-well high through put format, we used an in vitro transcription assay followed by a TCA precipitation step in order to separate radiolabeled nucleotides incorporated into nucleic acid from unincorporated label. Such format is convenient as it will allow rapid screening with a large collection of compounds. In this TCA precipitation assay, we reconstituted the holoenzyme from STAAU_R12 and S. aureus core enzyme instead of using the E. coli core enzyme with STAAU_R12.
The E. coli core enzyme (Epicentre) was used as a positive control for monitoring transcription efficiency. The set up of high throughput screening assay for STAAU_R12 is illustrated in FIG. 7. […] UTP (3000 Ci/mmole), 1 U of RNasin (Promega) and 40 ng of pTMSM template DNA (a pTM derivative vector). To investigate the in vitroeffectofG1ORF67 on STAAU_R12 mediated transcriptional activation, G1ORF67 and a negative control (10 μM) were added to the mixture and the reaction was incubated for 1 h at 37° C. in a 96-well PCR-plate (BD-Falcon™). […] After filtration, the wells were washed 3 times (225 μl per wash) with 10% TCA, 2 times (225 μl per wash) with 95% ethanol and then 75 μl of liquid scintillation cocktail was added and the plates were counted for 30 s on a Trilux™ Microbeta counter (Perkin Elmer-Packard).

Another test deals with S. aureus RN4220. Briefly: Growth kinetics assay (CFU) of S. aureus clones expressing phage ORF under arsenite-inducible promoter. It counts as cell-based, Staphylococcus aureus. The source says: Bacteriophage ORFs encoded in phage G1 genome were identified as follows: beginning at the first nucleotide, the phage G 1 genome sequence is scanned for a start codon. When one is identified, the number of in-frame codons is counted until a termination codon is reached. A minimum threshold of 33 codons defines this bounded sequence as an ORF. This procedure is repeated, starting at the next nucleotide following the last stop codon, until the end of the phage sequence is reached. The scan is performed in an identical manner on all three reading frames of both DNA strands of the phage sequence, in order to identify all the putative ORFs. Putative genes are then identified based on the presence of a Shine-Dalgarno sequence within the 15 nucleotides upstream of the start codon. The E. coli-S. aureus shuttle vector pTOO21 (Tauriainen et al., Appl. Environ. Microbiol. (1997) 63:4456-64), containing the arsenite-inducible ars promoter and the arsR gene, was modified with an optimal Shine-Dalgarno sequence (AGGAGG) followed by a multiple cloning site (MCS). DNA encoding individual phage ORFs was amplified by PCR from phage genomic DNA and cloned into the MCS of the modified vector. […]

The target in test [3] is E. coli holoenzyme (E. coli sigma factor and E. coli core RNA polymerase) (Escherichia coli, UniProt P00579). Conditions: pre-incubation with E. coli holoenzyme, FIG. 6C.
Description: (§1) The E. coli holoenzyme (Epicentre) was used at 10 nM as a positive control for monitoring transcription efficiency. Assays were done with increasing amounts (0 to 500 nM) of STAAU_R12 and 25 nM of E. coli core in a total volume of 25 μl containing 40 mM Tris-acetate pH 7.9, 100 mM NaCl, 5 mM MgCl2, 1 mM DTT, 0.1 mg/ml BSA, 0.5 mM of each ATP, GTP, CTP, 0.25 mM UTP, 5 μCi [^32P] UTP (3000 Ci/mmole), 2 units of RNasin (Promega) and 40 ng of pB6 template DNA (Lutz and Bujard, Nuc. Acid Res. (1997) 6:1203-10) harboring λPL promoter, kanamycin gene and the Col E1 RNA-1. […] Reactions were incubated at 37° C. for 15 min and stopped by addition of 5 μl of loading buffer (95% formamide, 20 mM EDTA and 0.05% of each xylene cyanol and bromophenol blue). Samples were boiled for 5 min and electrophoresed on a 6% polyacrylamide/8 M urea gel.
For test [4], the target named is holoenzyme reconstituted from STAAU_R12 and E. coli core RNA polymerase (Staphylococcus aureus, UniProt P0A0J0). Description: In vitro transcription assay (polyacrylamide/urea gel), reconstituted holoenzyme. The following applies: pre-incubation with STAAU_R12, 0 to 2 μM, FIG. 6B. It counts as biochemical.
Sequence of holoenzyme reconstituted from STAAU_R12 and E. coli core RNA polymerase (P0A0J0 whole entry): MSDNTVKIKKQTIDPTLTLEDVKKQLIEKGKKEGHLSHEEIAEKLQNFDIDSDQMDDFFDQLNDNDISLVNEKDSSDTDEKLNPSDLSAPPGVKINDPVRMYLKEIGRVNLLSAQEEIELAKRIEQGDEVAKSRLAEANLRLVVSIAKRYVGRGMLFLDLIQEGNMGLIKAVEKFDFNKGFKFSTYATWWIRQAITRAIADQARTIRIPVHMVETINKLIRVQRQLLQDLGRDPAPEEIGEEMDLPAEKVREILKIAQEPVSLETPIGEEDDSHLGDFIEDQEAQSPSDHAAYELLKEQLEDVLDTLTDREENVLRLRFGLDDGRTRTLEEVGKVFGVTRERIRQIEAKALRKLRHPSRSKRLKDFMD
Description: as §1

Sequence of STAAU_R12 with E. coli core and biotinylated λPR oligonucleotide (P0A0J0 whole entry): as above
T1 sequence (P0A0J0 whole entry): as above
Sequence of E. coli holoenzyme (E. coli sigma factor and E. coli core RNA polymerase) (P0A8V2 whole entry): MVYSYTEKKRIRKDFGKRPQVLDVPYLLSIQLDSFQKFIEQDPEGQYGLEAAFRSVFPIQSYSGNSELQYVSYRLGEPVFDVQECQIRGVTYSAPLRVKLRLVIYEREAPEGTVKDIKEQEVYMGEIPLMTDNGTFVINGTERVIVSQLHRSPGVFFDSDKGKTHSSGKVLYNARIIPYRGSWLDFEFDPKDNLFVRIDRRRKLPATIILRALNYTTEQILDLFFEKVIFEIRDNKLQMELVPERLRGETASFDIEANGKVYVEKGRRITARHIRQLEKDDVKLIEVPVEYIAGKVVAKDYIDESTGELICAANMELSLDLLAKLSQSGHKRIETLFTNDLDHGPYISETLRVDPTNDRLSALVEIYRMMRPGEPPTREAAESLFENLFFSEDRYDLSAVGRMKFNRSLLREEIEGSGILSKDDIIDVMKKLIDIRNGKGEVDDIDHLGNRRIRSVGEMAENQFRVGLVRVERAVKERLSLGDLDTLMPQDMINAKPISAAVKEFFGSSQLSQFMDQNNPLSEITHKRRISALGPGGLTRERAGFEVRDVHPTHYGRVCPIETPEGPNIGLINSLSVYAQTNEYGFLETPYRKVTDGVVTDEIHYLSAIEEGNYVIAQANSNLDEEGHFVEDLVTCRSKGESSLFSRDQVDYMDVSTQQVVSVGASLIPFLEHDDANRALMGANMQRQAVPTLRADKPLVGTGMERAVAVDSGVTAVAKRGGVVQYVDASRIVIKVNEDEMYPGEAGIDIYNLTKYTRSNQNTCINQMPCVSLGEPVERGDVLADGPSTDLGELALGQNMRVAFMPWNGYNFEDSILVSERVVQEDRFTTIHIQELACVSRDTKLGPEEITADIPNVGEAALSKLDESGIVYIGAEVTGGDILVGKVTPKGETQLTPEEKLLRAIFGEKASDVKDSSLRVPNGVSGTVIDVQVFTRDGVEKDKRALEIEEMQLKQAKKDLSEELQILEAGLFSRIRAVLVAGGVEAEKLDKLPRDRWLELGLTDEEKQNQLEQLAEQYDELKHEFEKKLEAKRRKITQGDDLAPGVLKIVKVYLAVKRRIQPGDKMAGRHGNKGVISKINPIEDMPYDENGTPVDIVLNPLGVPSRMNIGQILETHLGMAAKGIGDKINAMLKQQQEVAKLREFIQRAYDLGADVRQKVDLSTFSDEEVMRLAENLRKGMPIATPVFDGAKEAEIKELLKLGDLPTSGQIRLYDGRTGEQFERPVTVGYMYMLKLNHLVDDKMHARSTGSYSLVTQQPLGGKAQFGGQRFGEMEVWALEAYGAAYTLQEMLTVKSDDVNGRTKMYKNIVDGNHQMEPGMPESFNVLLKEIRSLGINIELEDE
Sequence of E. coli holoenzyme (E. coli sigma factor and E. coli core RNA polymerase) (P00579 whole entry): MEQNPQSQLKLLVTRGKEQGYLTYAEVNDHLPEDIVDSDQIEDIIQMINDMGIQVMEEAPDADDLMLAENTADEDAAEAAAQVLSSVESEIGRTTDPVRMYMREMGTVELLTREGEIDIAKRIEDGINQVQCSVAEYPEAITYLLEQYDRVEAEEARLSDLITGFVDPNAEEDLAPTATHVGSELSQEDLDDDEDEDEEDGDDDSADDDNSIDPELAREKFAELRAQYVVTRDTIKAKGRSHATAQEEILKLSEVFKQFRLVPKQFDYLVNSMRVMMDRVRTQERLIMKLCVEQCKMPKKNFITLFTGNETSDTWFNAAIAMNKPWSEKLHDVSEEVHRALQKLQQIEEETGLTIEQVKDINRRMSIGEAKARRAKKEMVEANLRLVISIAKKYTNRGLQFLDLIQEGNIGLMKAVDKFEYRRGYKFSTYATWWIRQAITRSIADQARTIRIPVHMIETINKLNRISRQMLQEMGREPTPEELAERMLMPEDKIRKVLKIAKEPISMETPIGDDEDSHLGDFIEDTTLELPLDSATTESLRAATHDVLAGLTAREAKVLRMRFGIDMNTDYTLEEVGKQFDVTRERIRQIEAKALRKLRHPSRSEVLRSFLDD
Sequence of E. coli holoenzyme (E. coli sigma factor and E. coli core RNA polymerase) (P0A7Z4 whole entry, further chain): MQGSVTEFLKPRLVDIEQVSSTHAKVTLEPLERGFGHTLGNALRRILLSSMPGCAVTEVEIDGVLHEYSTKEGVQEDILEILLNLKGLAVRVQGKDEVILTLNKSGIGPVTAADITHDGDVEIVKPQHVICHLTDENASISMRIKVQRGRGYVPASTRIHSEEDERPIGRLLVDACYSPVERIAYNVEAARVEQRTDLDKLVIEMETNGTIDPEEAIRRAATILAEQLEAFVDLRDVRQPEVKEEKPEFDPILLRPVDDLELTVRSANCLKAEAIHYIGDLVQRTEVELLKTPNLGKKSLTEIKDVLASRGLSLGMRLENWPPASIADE
Sequence of E. coli holoenzyme (E. coli sigma factor and E. coli core RNA polymerase) (P0A8T7 whole entry, further chain): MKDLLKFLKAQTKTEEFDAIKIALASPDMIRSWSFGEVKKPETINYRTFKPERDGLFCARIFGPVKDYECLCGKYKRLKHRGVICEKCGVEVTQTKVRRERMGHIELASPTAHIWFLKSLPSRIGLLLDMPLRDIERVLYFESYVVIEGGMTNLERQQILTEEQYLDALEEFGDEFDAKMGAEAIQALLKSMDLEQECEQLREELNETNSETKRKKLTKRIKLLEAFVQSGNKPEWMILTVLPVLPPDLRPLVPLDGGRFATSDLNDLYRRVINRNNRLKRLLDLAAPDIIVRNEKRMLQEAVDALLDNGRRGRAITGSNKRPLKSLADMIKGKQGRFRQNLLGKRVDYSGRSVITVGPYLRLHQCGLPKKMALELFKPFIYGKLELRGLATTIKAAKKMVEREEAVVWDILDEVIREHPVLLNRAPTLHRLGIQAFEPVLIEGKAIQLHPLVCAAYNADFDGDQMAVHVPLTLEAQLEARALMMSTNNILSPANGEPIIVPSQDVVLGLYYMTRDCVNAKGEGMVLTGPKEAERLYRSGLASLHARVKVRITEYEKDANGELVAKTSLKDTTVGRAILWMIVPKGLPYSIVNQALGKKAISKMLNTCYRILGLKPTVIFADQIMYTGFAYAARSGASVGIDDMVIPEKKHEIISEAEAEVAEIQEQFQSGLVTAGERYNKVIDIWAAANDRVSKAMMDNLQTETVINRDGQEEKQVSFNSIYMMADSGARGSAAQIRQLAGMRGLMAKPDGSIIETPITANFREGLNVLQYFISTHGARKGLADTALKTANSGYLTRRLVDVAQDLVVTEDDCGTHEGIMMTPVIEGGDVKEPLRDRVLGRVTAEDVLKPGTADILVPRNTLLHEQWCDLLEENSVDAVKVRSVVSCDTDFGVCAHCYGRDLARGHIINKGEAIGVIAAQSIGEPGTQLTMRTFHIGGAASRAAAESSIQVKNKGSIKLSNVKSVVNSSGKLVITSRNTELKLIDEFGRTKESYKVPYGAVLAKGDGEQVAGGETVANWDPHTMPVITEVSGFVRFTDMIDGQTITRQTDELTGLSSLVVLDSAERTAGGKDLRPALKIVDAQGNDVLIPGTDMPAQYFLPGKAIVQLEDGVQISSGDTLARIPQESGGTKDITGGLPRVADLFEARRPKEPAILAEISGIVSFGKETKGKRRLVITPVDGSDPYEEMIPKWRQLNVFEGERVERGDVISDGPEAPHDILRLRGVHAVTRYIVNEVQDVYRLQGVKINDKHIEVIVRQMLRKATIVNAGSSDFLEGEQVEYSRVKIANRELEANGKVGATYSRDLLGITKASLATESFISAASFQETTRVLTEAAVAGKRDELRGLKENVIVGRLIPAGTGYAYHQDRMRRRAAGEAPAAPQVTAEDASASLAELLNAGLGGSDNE

B1: G1ORF67: 198 amino acids protein from S. aureus bacteriophage G1 (SEQ ID NO: 7), anti-primary sigma factor (protein)
chain: MKLKILDKDNATLNVFHRNKEHKTIDNVPTANLVDWYPLSNAYEYKLSRNGEYLELKRLRSTLPSSYGLDDNNQDIIRDNNHRCKIGYWYNPAVRKDNLKIIEKAKQYGLPIITEEYDANTVEQGFRDIGVIFQSLKTIVVTRYLEGKTEEELRIFNMKSEESQLNEALKESDFSVDLTYSDLGQIYNMLLLMKKISK
modifications: Bacteriophage G1
For the molecule B1, the “reduction of the TR-FRET signal (core-dependent DNA binding of STAAU_R12)” value in test [1] turned out to be 7 fold. Moreover, in test [2], the “inhibition of STAAU_R12 mediated transcriptional activation (TCA precipitation)” value is recorded as “dramatic inhibition”. Also, in the test with S. aureus RN4220 (S. aureus RN4220, induced with 5 μM NaAsO2, FIG. 1), the “number of CFU in cells expressing the ORF” value was “significantly reduced”. In addition, the “type of growth inhibitory effect on S. aureus” value in the test with S. aureus RN4220 (expression of the ORF in S. aureus) is “bacteriostatic”. Moreover, the “effect on transcription by E. coli holoenzyme” value in test [3] was “did not affect transcription”. Also, the “inhibition of STAAU_R12-mediated transcriptional activation” value in test [4] is listed as “dramatic inhibition”.
